Measurements taken from article PMC4006948 (Molecular cell, 2013).

B1: Cmr6 (TTHB165) with a (His)6 tag at its C-terminus (natural protein, Thermus thermophilus HB8, UniProt Q53W04 2-348, looked up)
chain: GRRSALEGVRLPQGKEPHRGLWLDKFLRSARREDTEAKRVLVREAAGIPEPGEYRAFFKRYRGALEALGAEIREARTLSRLVVGLGGEGVLETALTLHRAYGVPYIPGSALKGLASRYAHLYLEGEAWRRDLARFHRGEAQAGLFGTTEEQGLVVFWDALPLPGKWKLHPDILNPHHPDYYGSVKAPPADWDGPKPVPFLSATGTFLLALSPAPGVSPEEAGPWLRAAWRILAWALREEGVGAKTSSGYGRMALEEPASQGEKPLAPGPSPVLQDLLTWARALSYREVPRFLASQAEAILGLSVEEAQALRRALEERGFLRNPQDLKRWRKEHPGLEGVLAKLGLSA
B2: Cmr1 (TTHB162) (natural protein, Thermus thermophilus HB8 (endogenous), UniProt Q53W07 1-395, looked up)
chain: MRRAFREAFSPRRKEEGGVLVRRDGARVLAWERTYTLLTPLFGGGVEPREADPVSVVRATAVRGHLRFWWRAVRGWRAGGSLERLWELESALFGSAGEGGASPLSVEVEVLREGEKVGIAQYGRAVQWYLGFPLRGDKEWAPVKEGVAFRLRLRFPEKVGELNFWEELEAALWAWETFGGIGARTRRGFGALLPQGAGVPGEEEIREKLRQYGQKAGWPEGVPHLTPKSFVRVVPLSWRELAERYQAFRQARPGGDPRSPGRSYWPEPDGVRRLTGRHAPHHLPRHPVHKFPRAHFGLPIIFHFKDRGDPPDTTLRLKEADRRASPLLFRPLGEGQKPCVVAVLEGARFPGEKLVLEGKDGRTWDVDPWLTPEEAQKIPVLGGEVDPVLAFVKSL
B4: Cmr2 (TTHB160) (natural protein, Thermus thermophilus HB8 (endogenous), UniProt Q53W09 1-584, looked up)
chain: MEHLLAIALGPVQEFIATARRTRDLYAGSRLLSEAAARAAKALAREVGAKNLIFPAPEDEAGLERLAGAGIPNVLLVRVPEGKDPRGLGEQALGAARDYLRERAEEVLGPRRDLLFWREALAQVEDLLEGYYAYLPLEGDYPRARERLMALLAARKNTRDFAPVSWGSPAYKSSLDGARESVLRLPEKEADHLRVRLGLRPGEYLAGPDLLKRWWKAGHGFLSTTHMAALPFWEGVRRAGLEAVLKEALEELGGLVGEEARAEVRHPVLRDTPFGEWDVRLLYESRLEEFPSLAEDPGLLEKARDRLRALWRRLFPKVRVPPGAYYALLHADGDRMGETLDGLPSPEAHRRFSNALALGFAAQVKDIVEAHGGGLVYSGGDDVLALLPLHTALMAARALADRFREAMAPFGREGRAPSLSVGLAVVHHLEPLQDALDLARRAEKWAKEGEPKRNALCVAYSPRSGAERLVRGRWDENPPLTRRLLRYADLLRAGEVPSRAAYELLALVREAGEALSGEALVAEALRILGRKEMKRAYREELEAWLRTGEDVRRLAEELILARPFAEALDQAGVPVESREVWDAH
B6: Cmr3 (TTHB161) (natural protein, Thermus thermophilus HB8 (endogenous), UniProt Q53W08 1-361, looked up)
chain: MLIEPRDPLIVRDGRPFTNSPGARAKSLPFPLPQTLAGAYRTRRALLEGLPLPERAEEVLRWGLRGPLLAEEGEGGWRLLAPRPLDALKLGEALYPLRPLELPQGAGTNLPEGLSPVGLPSPALKEKPAPLPAFWYWESFLEWLLQDAPAGFAPRGHEGPVPETRTHVALDPAAQTAREGFLFQTSGLEFVRGRRRLALVLWPEGPEPEGVFPLGGERRLAFWQKGGPGVPPLPEEVVAGLLRHRAARLVFLTPAFLGEAYLPKGRAFQGASVVAAVVGRPLAVSGWNLKEGKPKPSRRAVPAGSVYFVRLPEAWGEGEVRDWAEKVWFQNLSEEEQDRRDGFGLAALGLWDGKLRRWEEA
B7: Cmr4 (TTHB163) (natural protein, Thermus thermophilus HB8 (endogenous), UniProt Q53W06 2-286, looked up)
chain: SHVALLFLHALSPLHAGTGQGIGAIDLPIAREKATGIPYLPGSSLKGVLRDRASAWDRDTLFAVFGPDTENASEHAGAVQVGDAKLLLLPVRSLYGVFALVASPYLLERFRREALMAGLQPPGVPGLQDPTRVLLAPGSRLLGDGEKVYLEDLDLKAQGEEGVAAWERWLAERTEAPVLGRLAVVHDDLMGFLLETATEVVARIRLDDETKTVAKGALWYEESLPAESLLYALVRADRSFRKGKELPPEGVWALFRGVLEEGGGVLQLGGKATVGRGLCRIVVGR

Assays:
[1] = target: B6; assay: affinity purification with mass spectrometry
[2] = target: B4; assay: affinity purification with mass spectrometry
[3] = target: B2; assay: affinity purification with mass spectrometry
[4] = target: B1; assay: native MS
[5] = target: B7; assay: negative-stain electron microscopy, single particle reconstruction
[6] = target: T1, recombinant Cmr2 (TTHB160), no tag (Thermus thermophilus HB8, UniProt Q53W09 1-584); assay: native MS
T1 sequence (looked up): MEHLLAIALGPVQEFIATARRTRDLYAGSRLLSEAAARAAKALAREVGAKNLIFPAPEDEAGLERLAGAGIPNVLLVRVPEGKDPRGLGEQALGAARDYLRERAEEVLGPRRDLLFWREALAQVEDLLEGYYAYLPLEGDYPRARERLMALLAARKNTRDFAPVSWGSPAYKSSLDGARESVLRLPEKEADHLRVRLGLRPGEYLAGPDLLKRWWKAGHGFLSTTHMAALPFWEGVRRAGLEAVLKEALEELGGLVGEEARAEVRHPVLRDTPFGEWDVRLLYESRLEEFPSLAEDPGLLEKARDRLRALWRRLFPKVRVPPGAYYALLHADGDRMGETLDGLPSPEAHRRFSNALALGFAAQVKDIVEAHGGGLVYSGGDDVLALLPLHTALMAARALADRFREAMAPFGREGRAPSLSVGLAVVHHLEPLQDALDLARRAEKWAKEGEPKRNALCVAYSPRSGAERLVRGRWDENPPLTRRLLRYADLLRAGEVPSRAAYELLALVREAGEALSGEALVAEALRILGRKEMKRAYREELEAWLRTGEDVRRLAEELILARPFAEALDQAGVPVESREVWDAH

[7] = target: B4; assay: negative-stain electron microscopy, single particle reconstruction
[8] = target: the molecule itself; assay: as above

## B1
[1]
  binding result: binds
[2]
  binding result: binds
[3]
  binding result: binds

## B2
[4]
  stoichiometry N: 1 copies per Cmr6

B3: Cmr5 (TTHB164) (natural protein, Thermus thermophilus HB8 (endogenous), UniProt Q53W05 1-114, looked up)
chain: MRTRSQVWAQKAYEKVREAAKGEGRGEYRDMALKLPVLVRQAGLSQALAFVDSRGKEAHKALGNDLAQVLGYRDLRELAEAAREAELLQYLRLTREVLAAAEWFKRFAQALIEE
[5]
  binding result: binds
[4]
  stoichiometry N: 3 copies per Cmr6

## B4
[4]
  stoichiometry N: 1 copies per Cmr6

B5: recombinant Cmr3 (TTHB161), no tag (natural protein, Thermus thermophilus HB8, UniProt Q53W08 1-361, looked up)
chain: MLIEPRDPLIVRDGRPFTNSPGARAKSLPFPLPQTLAGAYRTRRALLEGLPLPERAEEVLRWGLRGPLLAEEGEGGWRLLAPRPLDALKLGEALYPLRPLELPQGAGTNLPEGLSPVGLPSPALKEKPAPLPAFWYWESFLEWLLQDAPAGFAPRGHEGPVPETRTHVALDPAAQTAREGFLFQTSGLEFVRGRRRLALVLWPEGPEPEGVFPLGGERRLAFWQKGGPGVPPLPEEVVAGLLRHRAARLVFLTPAFLGEAYLPKGRAFQGASVVAAVVGRPLAVSGWNLKEGKPKPSRRAVPAGSVYFVRLPEAWGEGEVRDWAEKVWFQNLSEEEQDRRDGFGLAALGLWDGKLRRWEEA
[6]
  binding result: binds

## B6
[7]
  binding result: binds
[4]
  stoichiometry N: 1 copies per Cmr6

## B7
[8]
  stoichiometry N: 4
[4]
  stoichiometry N: 4 copies per Cmr6
